Reference: article doi:10.1101/2021.10.29.464531

Target: tick-borne encephalitis virus capsid protein (tick-borne encephalitis virus, strain Kuutsalo-14)
Test: cross-linking

For “tick-borne encephalitis virus capsid protein (natural protein)”, the stoichiometry N was 2.
